Data from paper doi:10.1101/2023.08.24.554544 (bioRxiv, 2023).

Molecular target: T1, GST-tagged A. thaliana Rpn10 (AtRpn10) vWA domain (Arabidopsis thaliana, UniProt P55034 2-193)
T1 construct: also called GST-AtRpn10; GST-Rpn10vWA
T1 sequence: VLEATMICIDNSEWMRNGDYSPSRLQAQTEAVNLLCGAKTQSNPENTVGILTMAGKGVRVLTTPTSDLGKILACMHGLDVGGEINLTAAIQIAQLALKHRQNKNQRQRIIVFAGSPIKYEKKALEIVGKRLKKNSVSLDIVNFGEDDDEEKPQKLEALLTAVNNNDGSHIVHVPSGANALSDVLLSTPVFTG
Assay: SPR
Conditions: both partners purified

Binder | Kd
onion yellows phytoplasma (OY-M strain) SAP05 (OY_SAP05) (natural protein, source: E. coli BL21(DE3), purified (Ni-NTA, Superdex 75)) APHEERVGDMRIVNITFSDINSIKNFQPFSQYFDFTLTGPRYNGNIAQFAMIWKIKNPPHNLLGVFFDNNTRDDEDDKYTLEELKQMGNGAKNMYIFWQYEQK | 398 ± 39 nM
aster yellows witches'-broom phytoplasma SAP05 (AYWB_SAP05), mature, 33-135 (natural protein, source: E. coli BL21(DE3), purified (Ni-NTA, Superdex 75)) APNEEFVGDMRIVNVNLSNIDILKKHETFKKYFDFTLTGPRYNGNIAEFAMIWKIKNPPLNLLGVFFDDGTRDDEDDKYILEELKQIGNGAKNMYIFWQYEQK | 400 ± 39 nM
